Assay [1] concerns the target GFP polybody (His-tagged GFP nanobody-TMS reconstituted in peptidisc). The experiment in a line: BLI. Background: BLI is a label-free optical method that tracks binding on a fibre tip over time.
A further assay concerns the target His-tagged GFP nanobody. Put plainly: BLI.

As to “His-tagged GFP (green fluorescent protein) (from UniProt P42212 1-238) (natural protein)”, the results for the equilibrium dissociation constant (Kd) (in assay [1]; with His-tagged GFP nanobody) were 2.72 nM and 0.75 nM, respectively.

Source of the values: publication doi:10.1101/2024.12.31.630897.
